We go through five molecules from article PMC5038328, “IMP-27, a Unique Metallo-β-Lactamase Identified in Geographically Distinct Isolates of Proteus mirabilis” (Antimicrobial Agents and Chemotherapy, 2016).

Series [1] deals with C[C@@H](O)[C@H]1C(=O)N2C(C(=O)O)=C(SCCN=CN)C[C@H]12. The experiment in a line: competition with nitrocefin hydrolysis, spectrophotometric. In kind it is biochemical, Proteus mirabilis. The conditions noted are these: Km measured as Ki with nitrocefin as reporter substrate. The text has this: (§1) competition with nitrocefin hydrolysis, spectrophotometric on IMP-27
For series [2], the system named is C[C@@H](O)[C@H]1C(=O)N2C(C(=O)O)=C(S[C@@H]3CN[C@H](C(=O)N(C)C)C3)[C@H](C)[C@H]12. The description is as above. In kind it is biochemical, Proteus mirabilis. The settings on record: Km measured as Ki with nitrocefin as reporter substrate.
Text: as §1

For series [3], the system named is CC(C)(O/N=C(\C(=O)N[C@@H]1C(=O)N2C(C(=O)[O-])=C(C[n+]3ccccc3)CS[C@H]12)c1csc(N)n1)C(=O)O. The series can be described thus: spectrophotometric initial hydrolysis rates. The series is classed as biochemical, Proteus mirabilis. The text has this: (§2) spectrophotometric initial hydrolysis rates on IMP-27
Series [4] has as its system CO/N=C(\C(=O)N[C@@H]1C(=O)N2C(C(=O)[O-])=C(C[N+]3(C)CCCC3)CS[C@H]12)c1csc(N)n1. The experiment in a line: spectrophotometric initial hydrolysis rates. The series is classed as biochemical, Proteus mirabilis.
Text: as §2

Series [5] relates to CO/N=C(\C(=O)N[C@@H]1C(=O)N2C(C(=O)O)=C(COC(C)=O)CS[C@H]12)c1csc(N)n1. The series can be described thus: spectrophotometric initial hydrolysis rates. The series is classed as biochemical, Proteus mirabilis.
Text: as §2

For series [6], the system named is O=C(Cc1cccs1)N[C@@H]1C(=O)N2C(C(=O)O)=C(/C=C/c3ccc([N+](=O)[O-])cc3[N+](=O)[O-])CS[C@H]12. The series can be described thus: spectrophotometric initial hydrolysis rates. In kind it is biochemical, Proteus mirabilis.
Text: as §2

The target in series [7] is T1, IMP-27 (Proteus mirabilis, UniProt F8UQX1).
T1 construct: gene PCR amplified from 2009 isolate DNA, pET-9a, E. coli BL21(DE3)/pLysS; KF501391 is the class 2 integron record
The series can be described thus: inhibition of nitrocefin hydrolysis, spectrophotometric initial rates. In kind it is biochemical.

The target of series [8] is T1, IMP-27. The experiment in a line: spectrophotometric initial rates. In kind it is biochemical. The text has this:
spectrophotometric initial rates on IMP-27

T1 sequence (F8UQX1 entry or part of it): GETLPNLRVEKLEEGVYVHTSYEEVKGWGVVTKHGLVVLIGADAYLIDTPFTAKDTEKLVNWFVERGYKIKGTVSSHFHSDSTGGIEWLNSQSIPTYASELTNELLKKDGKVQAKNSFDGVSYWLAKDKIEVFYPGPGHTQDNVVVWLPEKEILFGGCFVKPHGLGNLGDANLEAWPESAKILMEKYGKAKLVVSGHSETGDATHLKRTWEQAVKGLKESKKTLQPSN

As usually defined, the Km is the concentration of substrate that gives half-maximal velocity. Usually kcat stands for the maximal rate divided by the concentration of active sites. As a reminder, the kcat/Km is the second-order rate constant that governs catalysis at low substrate concentration. On to IMP-27 (Proteus mirabilis), for which the Michaelis constant (Km) in series [1] worked out at 310 ± 19 µM; in series [2] it was 2.3 ± 0.8 µM; in series [3], 54 ± 4.3 µM; in series [4], 53 ± 3.6 µM; in series [5] it was 24 ± 1.9 µM; in series [6], 36 ± 3.1 µM. The catalytic constant (kcat) in series [1] turned out to be 34 ± 0.38 s⁻¹; in series [2] it was 3.4 ± 0.53 s⁻¹; in series [3], 0.7 ± 0.03 s⁻¹; in series [4] it was 8.1 ± 0.37 s⁻¹; in series [5] it was 20 ± 0.66 s⁻¹; in series [6] it was 370 ± 15 s⁻¹. In addition, the catalytic efficiency (kcat/Km) in series [1] stood at 110000 M⁻¹ s⁻¹; in series [2] it was 1.5e+06 M⁻¹ s⁻¹; in series [3], 13000 M⁻¹ s⁻¹; in series [4], 150000 M⁻¹ s⁻¹; in series [5] it was 860000 M⁻¹ s⁻¹; in series [6] it was 1e+07 M⁻¹ s⁻¹.
In the case of `O=C(O)c1cccc(C(=O)O)n1` [dipicolinic acid], at IMP-27 [7] (read-out: Ki), the Ki amounted to 4.6 ± 0.13 mM.
Same read-out and setting: with `O=C(O)CN(CCN(CC(=O)O)CC(=O)O)CC(=O)O` [EDTA] the figure was 11 ± 0.9 mM.
Regarding `C[C@H]1[C@H](NC(=O)/C(=N\OC(C)(C)C(=O)O)c2csc(N)n2)C(=O)N1S(=O)(=O)O` [aztreonam], the Ki at IMP-27 [8] is greater than 23 mM.
Regarding `CCN1CCN(C(=O)N[C@@H](C(=O)N[C@@H]2C(=O)N3[C@@H]2SC(C)(C)[C@@H]3C(=O)O)c2ccccc2)C(=O)C1=O` [piperacillin], the Ki at IMP-27 [7] (read-out: IMP-27 / Km or Ki) was found to be 3 mM.
